Data from patent US20210363269A1 (ALX ONCOLOGY, published 2021).
Substitutions are numbered along the chain they refer to. In names and notes the source's numbering stands.

Legend:
[1] = molecular target: T1, human SIRP-α v1 D1 domain (human, UniProt P78324 31-149); assay: SPR, antibody immobilised on GLC chip
T1 construct: also called human v1; human α v1
Protocol: (§1) All experiments were performed at 25° C. using a SPR-based ProteOn XPR36 biosensor (BioRad, Inc, Hercules, Calif.) equipped with GLC or NLC sensor chips. […] Purification was carried out by standard Protein A affinity column chromatography and eluted antibodies were stored in PBS buffer.
(§2) For the method using GLC chip, the analytes were injected and flowed over anti-SIRPα antibodies immobilized (˜1000 RUs) on GLC chips using Proteon™ Amine Coupling Kit. For the immobilization step, GLC chip was activated with EDAC/Sulpho-NHS 1:1 (Biorad) diluted 1/100 for 300 s at 25 μL/min. Anti-SIRPα antibodies were diluted to 80 nM concentration in 10 mM sodium acetate buffer pH 4.5 and immobilized to the chip at 30 μL/min for 50 s. Chip was inactivated with ethanolamine for 300 s at 25 μL/min. The analytes (e.g., SIRP-α from different species, SIRP-β, SIRP-γ) were injected in a “one-shot” kinetic mode at nominal concentrations of 100, 33, 11, 3.7, 1.2 and 0 nM. Association times were monitored for 90 s at 100 μL/min, and dissociation times were monitored for 1200 s. The surfaces were regenerated with a 2:1 v/v blend of Pierce IgG elution buffer/4M NaCl. […]
T1 sequence (P78324 31-149 limits assumed): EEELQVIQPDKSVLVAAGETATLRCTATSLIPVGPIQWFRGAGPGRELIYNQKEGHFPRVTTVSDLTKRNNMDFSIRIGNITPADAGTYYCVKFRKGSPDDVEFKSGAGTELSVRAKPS

[2] = molecular target: T2, NOD mouse SIRP-α D1 domain (mouse (NOD strain)); assay: SPR, antibody immobilised on GLC chip
T2 chain: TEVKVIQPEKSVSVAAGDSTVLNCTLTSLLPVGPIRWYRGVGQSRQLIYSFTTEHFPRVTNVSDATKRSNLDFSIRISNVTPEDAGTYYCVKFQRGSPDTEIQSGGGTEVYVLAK
Protocol: as §1, §2

human SIRPγ isoform 1 [3] = molecular target: T3, human SIRPγ isoform 1 (human, UniProt Q9P1W8 29-147); assay: SPR, antibody immobilised on GLC chip
T3 construct: also called sirpg; sirp-g
Protocol: as §1, §2
T3 sequence (Q9P1W8 29-147 limits assumed): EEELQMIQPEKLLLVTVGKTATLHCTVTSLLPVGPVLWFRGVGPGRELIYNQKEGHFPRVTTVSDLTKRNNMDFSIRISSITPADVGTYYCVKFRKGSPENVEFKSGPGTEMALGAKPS

[4] = molecular target: T4, human SIRP-α v2 D1 domain (human); assay: SPR, antibody immobilised on GLC chip
T4 construct: also called human v2; human α v2
Protocol: as §1, §2

[5] = molecular target: T5, C57BL/6 mouse SIRP-α D1 domain (mouse (C57BL/6 strain), UniProt P97797 32-148); assay: SPR, antibody immobilised on GLC chip
T5 sequence: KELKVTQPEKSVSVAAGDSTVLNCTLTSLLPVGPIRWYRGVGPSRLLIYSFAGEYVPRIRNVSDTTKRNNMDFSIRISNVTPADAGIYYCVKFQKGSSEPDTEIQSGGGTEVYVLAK
Protocol: as §1, §2

[6] = molecular target: T6, BALB/c mouse SIRP-α D1 domain (mouse (BALB/c strain)); assay: SPR, antibody immobilised on GLC chip
T6 chain: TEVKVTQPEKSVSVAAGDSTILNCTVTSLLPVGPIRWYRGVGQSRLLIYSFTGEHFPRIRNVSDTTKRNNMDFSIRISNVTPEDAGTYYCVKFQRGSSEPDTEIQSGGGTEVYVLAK
Protocol: as §1, §2

[7] = molecular target: T7, mouse 129 SIRP-α D1 domain (mouse (129 strain), UniProt P97797 32-150); assay: SPR, ProteOn, antibody on chip
T7 construct: also called m129
T7 chain: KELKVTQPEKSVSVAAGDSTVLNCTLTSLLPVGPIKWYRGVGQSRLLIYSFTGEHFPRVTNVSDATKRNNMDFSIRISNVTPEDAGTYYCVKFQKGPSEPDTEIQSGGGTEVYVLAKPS
Protocol: as §1
(§3) For the method using GLC chip, the analytes were injected and flowed over anti-SIRPα antibodies immobilized (˜1000 RUs) on GLC chips using Proteon™ Amine Coupling Kit. For the immobilization step, GLC chip was activated with EDAC/Sulpho-NHS 1:1 (Biorad) diluted 1/100 for 300 s at 25 μL/min. Anti-SIRPα antibodies were diluted to 80 nM concentration in 10 mM sodium acetate buffer pH 4.5 and immobilized to the chip at 30 μL/min for 50 s. Chip was inactivated with ethanolamine for 300 s at 25 μL/min. The analytes (e.g., SIRP-α from different species, SIRP-β, SIRP-γ) were injected in a “one-shot” kinetic mode at nominal concentrations of 100, 33, 11, 3.7, 1.2 and 0 nM. Association times were monitored for 90 s at 100 μL/min, and dissociation times were monitored for 1200 s. The surfaces were regenerated with a 2:1 v/v blend of Pierce IgG elution buffer/4M NaCl.
(§4) Next, the binding kinetics of various antibody clones to selected mouse SIRP-α proteins were determined as described above. Mouse proteins that were tested include BALBc (SEQ ID NO:10), BL6 (SEQ ID NO:9), NOD (SEQ ID NO:8), and m129 (SEQ ID NO:7) SIRP-α proteins. Antibody clones labeled as “c” were tested as full-length mouse IgG2a antibodies; antibody clones labeled as “a” were tested as full-length human IgG1 antibodies with L234A, L235A, G237A, and N297A mutations.

[8] = molecular target: T2, NOD mouse SIRP-α D1 domain; assay: SPR, ProteOn, antibody on chip
Protocol: as §1, §3, §4

[9] = molecular target: T1, human SIRP-α v1 D1 domain; assay: SPR, ProteOn, antibody on chip
Protocol: as §1
(§5) The running buffer was PBS pH 7.4 with 0.01% Tween-20 (PBST+). All analytes were used at their nominal concentrations as determined by A280 Absorbance and using their molar calculated extinction coefficient.
as §3

human SIRPγ isoform 1 [10] = molecular target: T3, human SIRPγ isoform 1; assay: SPR, ProteOn, antibody on chip
Protocol: as §1, §5, §3

[11] = molecular target: T4, human SIRP-α v2 D1 domain; assay: SPR, ProteOn, antibody on chip
Protocol: as §1, §5, §3

[12] = molecular target: T5, C57BL/6 mouse SIRP-α D1 domain; assay: SPR, ProteOn, antibody on chip
Protocol: as §1, §5, §3

human SIRPβ isoform 1 [13] = molecular target: T8, human SIRPβ isoform 1 (human, UniProt O00241 30-148); assay: SPR, ProteOn, antibody on chip
T8 construct: also called sirpb1; Sirpb1
Protocol: as §1, §5, §3
T8 sequence (O00241 30-148 limits assumed): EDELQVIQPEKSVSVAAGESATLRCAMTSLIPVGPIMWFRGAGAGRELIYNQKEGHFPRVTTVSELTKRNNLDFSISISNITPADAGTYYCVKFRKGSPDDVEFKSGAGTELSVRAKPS

[14] = molecular target: T6, BALB/c mouse SIRP-α D1 domain; assay: SPR, ProteOn, antibody on chip
Protocol: as §1, §5, §3

human SIRPβ isoform 2 = molecular target: T9, human SIRPβ isoform 2 (human, UniProt Q5TFQ8 30-148); assay: SPR, ProteOn, antibody on chip
T9 construct: also called Sirpb2; beta isoform 2
T9 sequence (Q5TFQ8 30-148 limits assumed): as the sequence (P78324 31-149 limits assumed) above, with V13I, L14S, T20S, R24H, A27V, G79S, D101H counted along it
Protocol: as §1, §5, §3

[15] = molecular target: T10, cynomolgus SIRP-α D1 domain (cyno1) (cynomolgus monkey, UniProt Q5TFQ8 30-148 (human entry), limits assumed); assay: SPR
T10 chain: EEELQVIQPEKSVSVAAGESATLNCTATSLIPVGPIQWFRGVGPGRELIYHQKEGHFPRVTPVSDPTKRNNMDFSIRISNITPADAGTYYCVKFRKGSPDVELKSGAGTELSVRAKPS
Procedure, shortened: (§6)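 scFv-Fc antibody clones were captured from pre-filtered culture media onto anti-human IgG Fc, amine-coupled at about 4000 RU on a GLC chip in a ProteOn XPR36 instrument. SIRP analytes were passed over in PBS pH 7.4 with 0.01% Tween-20 at 25° C, and responses were double-referenced against interspot and buffer-blank signals. Curves were fitted to a 1:1 Langmuir model. Dissociation rate constants (koff) were taken from those fits.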

[16] = molecular target: T11, C57BL/6 mouse SIRP-α D1 domain (mouse (C57BL/6 strain), UniProt P97797 32-148); assay: SPR
T11 sequence: T5 sequence
Procedure, shortened: as §6

human SIRPγ isoform 1 [17] = molecular target: T12, human SIRPγ isoform 1 (human, UniProt Q9P1W8 29-147); assay: SPR
T12 construct: also called SIRPg; sirpg
Procedure, shortened: as §6
T12 sequence (Q9P1W8 29-147 limits assumed): as the sequence (Q9P1W8 29-147 limits assumed) above

[18] = molecular target: T13, high affinity SIRP-α D1 variant CV1-3; assay: SPR, Langmuir fit
T13 chain: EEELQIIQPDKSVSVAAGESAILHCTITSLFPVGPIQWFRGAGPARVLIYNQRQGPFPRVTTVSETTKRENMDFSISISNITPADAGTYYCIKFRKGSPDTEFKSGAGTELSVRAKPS
Procedure, shortened: as §6

human SIRPβ isoform 1 [19] = molecular target: T14, human SIRPβ isoform 1 (human, UniProt O00241 30-148); assay: SPR, Langmuir fit
T14 construct: also called SIRPb; sirpb1
Procedure, shortened: as §6
T14 sequence (O00241 30-148 limits assumed): as the sequence (O00241 30-148 limits assumed) above

[20] = molecular target: T15, human SIRP-α v2 D1 domain (human); assay: SPR, Langmuir fit
T15 construct: also called human v2
Procedure, shortened: as §6
T15 sequence (chain, as listed by the source limits assumed): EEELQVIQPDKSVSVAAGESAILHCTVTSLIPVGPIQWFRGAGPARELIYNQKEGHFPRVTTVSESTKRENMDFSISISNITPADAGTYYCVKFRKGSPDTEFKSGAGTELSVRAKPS

[21] = molecular target: T16, human SIRP-α v1 D1 domain (human, UniProt P78324 31-149); assay: SPR, Langmuir fit
T16 construct: also called human v1
Procedure, shortened: as §6
T16 sequence (P78324 31-149 limits assumed): as the sequence (P78324 31-149 limits assumed) above

human SIRPβ isoform 1 [22] = molecular target: T14, human SIRPβ isoform 1; assay: SPR
Procedure, shortened: as §6

[23] = molecular target: T17, mouse 129 SIRP-α D1 domain (mouse (129 strain), UniProt P97797 32-150); assay: SPR
T17 construct: also called m129
T17 chain: T7 chain
Procedure, shortened: as §6

B1: AB136a (antibody, human IgG1, V domains shown)
VH: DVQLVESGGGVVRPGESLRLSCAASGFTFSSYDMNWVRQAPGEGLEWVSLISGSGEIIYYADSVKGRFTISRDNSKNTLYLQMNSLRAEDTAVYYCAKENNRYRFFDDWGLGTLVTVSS
VL: ETVLTQSPGTLTLSPGERATLTCRASQSVYTYLAWYQEKPGQAPRLLIYGASSRATGIPDRFSGSGSGTEFTLTISSLQSEDFAVYYCQQYYDRPPLTFGGGTKVEIK
notes: Full-length human IgG1 with L234A, L235A, G237A and N297A
For B1, the Kd [1] was 0.972 nM, the Kd [2] was 0.821 nM and the Kd (human SIRPγ isoform 1 [3]) was 33.6 nM. For the same binder, the Kd [4] was 2.54 nM, the Kd [5] was 16.4 nM and the Kd [6] was 0.458 nM. For the same binder, the Kd [7] was 0.867 nM, the koff [7] was 0.000597 s⁻¹ and the kon [7] was 688000 M⁻¹ s⁻¹. For the same binder, the Kd [8] was 0.533 nM, the koff [8] was 0.000448 s⁻¹ and the kon [8] was 841000 M⁻¹ s⁻¹. For the same binder, the Kd [9] was 0.688 nM, the Kd (human SIRPγ isoform 1 [10]) was 120 nM and the Kd [11] was 3.22 nM. For the same binder, the Kd [12] was 9.37 nM, the koff [12] was 0.00585 s⁻¹ and the kon [12] was 624000 M⁻¹ s⁻¹. For the same binder, the Kd (human SIRPβ isoform 1 [13]) was 4.35 nM, the Kd [14] was 0.331 nM and the koff [14] was 0.000273 s⁻¹. For the same binder, the kon [14] was 827000 M⁻¹ s⁻¹ and the Kd (human SIRPβ isoform 2) was 2.27 nM.

B2: S209 (scFv, V domains shown)
VH: DVQLVESGGAVVRPGESLRLSCKASGFTFTNFAMSWVRQAPGEGLEWVSGISGSDDTTYYADSVKGRFTISRDNSESTLYLQMNSLRAEDTAVYYCVKDSTVSWNTFFDYWGLGTLVTVSS
VL: ALTQPASVSANLGGTVKITCSGGYGSDDGSSSYYGWYQQKSPGSAPVILIYWDDKRPSDIPSRFSGSTSGSTTTLTITGVQAEDEAVYFCGTYDTSSGAIFGAGTTLTVL
B2: no binding (tested: Koff > 5 × 10^3 (legend)) [15]; no binding (tested: Koff > 5 × 10^3 (legend)) [16]; no binding (tested: Koff > 5 × 10^3 (legend)) (human SIRPγ isoform 1 [17]). The koff [18] was 0.00245 s⁻¹, the koff (human SIRPβ isoform 1 [19]) was 6.54e-05 s⁻¹ and the koff [20] was 0.00401 s⁻¹. It also gave a koff [21] of 0.000659 s⁻¹.

B3: S173 (scFv, V domains shown)
VH: DVQLVESGGGVVRPGESLRLSCAASGFAFSDHDMSWVRQGPGEGLEWVAGISLRGGVTWYADSVKGRFTISRDNSKNTLYLRLFSLRTEDTAIYYCARESWNTFFDYWGLGTLVTVSS
VL: EIVLTQSPGTLSLSPGETATLSCRASQNVRSNLAWYQQKPGQAPRLLIYDASSRATGIPDRFSGSGSGTDFTLTISSLQSEDFAVYYCQQYGNGPPLTFGGGTKVEIK
B3: no binding (tested: Koff > 5 × 10^3 (legend)) [15]; no binding (tested: Koff > 5 × 10^3 (legend)) (human SIRPβ isoform 1 [22]); no binding (tested: Koff > 5 × 10^3 (legend)) [16]. The binding result (human SIRPγ isoform 1 [17]) was “no binding (tested: Koff > 5 × 10^3 (legend))”, the binding result [23] was “no binding (tested: Koff > 5 × 10^3 (legend))” and the koff [18] was 0.00137 s⁻¹. It also gave a koff [20] of 0.00504 s⁻¹ and a koff [21] of 0.00112 s⁻¹.

B4: S174 (scFv, V domains shown)
VH: B3 VH with A28T
VL: B3 VL
B4: no binding (tested: Koff > 5 × 10^3 (legend)) [15]; no binding (tested: Koff > 5 × 10^3 (legend)) (human SIRPβ isoform 1 [22]); no binding (tested: Koff > 5 × 10^3 (legend)) [16]. The binding result (human SIRPγ isoform 1 [17]) was “no binding (tested: Koff > 5 × 10^3 (legend))”, the binding result [23] was “no binding (tested: Koff > 5 × 10^3 (legend))” and the koff [18] was 0.00189 s⁻¹. It also gave a koff [20] of 0.00399 s⁻¹ and a koff [21] of 0.00143 s⁻¹.
